Two molecules from patent US20020187514A1 (priority 1999, published 2002) can be followed below.

The target in one test is Complement C5a (Homo sapiens, UniProt P21730). The test can be described thus: Complement C5a (Human); [125I]BH-rC5a. It is filed as binding. The note with it: reference compound, QA/QC; read-out: Ref Kj.
Test [1] deals with Epidermal Growth Factor, EGF. The test can be described thus: Epidermal Growth Factor, EGF; [125I]EGF. The class given is binding. As to conditions: reference compound, QA/QC; read-out: Ref Kj.

Sequence of Complement C5a (P21730 whole entry): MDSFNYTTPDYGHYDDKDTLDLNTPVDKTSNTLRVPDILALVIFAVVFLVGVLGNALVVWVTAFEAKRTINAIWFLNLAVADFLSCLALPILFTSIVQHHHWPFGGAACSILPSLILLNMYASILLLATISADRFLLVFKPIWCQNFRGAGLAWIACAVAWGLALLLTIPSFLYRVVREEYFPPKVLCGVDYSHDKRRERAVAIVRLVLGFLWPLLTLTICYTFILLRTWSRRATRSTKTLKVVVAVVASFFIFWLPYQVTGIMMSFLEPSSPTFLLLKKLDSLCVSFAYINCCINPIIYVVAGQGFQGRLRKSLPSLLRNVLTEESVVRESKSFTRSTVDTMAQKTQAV

B1: rC5a, Human: reference compound, Complement C5a assay (protein, UniProt P01031 678-751, looked up)
C5a anaphylatoxin: TLQKKIEEIAAKYKHSVVKKCCYDGACVNNDETCEQRAARISLGPRCIKAFTECCVVASQLRANISHKDMQLGR
modifications: C5a anaphylatoxin
Take B1: the Ki in the test with Complement C5a was determined as 0.619 nM.

B2: EGF: reference compound, Epidermal Growth Factor assay (protein, UniProt P01133 23-1207, looked up)
Pro-epidermal growth factor: PQHWSCPEGTLAGNGNSTCVGPAPFLIFSHGNSIFRIDTEGTNYEQLVVDAGVSVIMDFHYNEKRIYWVDLERQLLQRVFLNGSRQERVCNIEKNVSGMAINWINEEVIWSNQQEGIITVTDMKGNNSHILLSALKYPANVAVDPVERFIFWSSEVAGSLYRADLDGVGVKALLETSEKITAVSLDVLDKRLFWIQYNREGSNSLICSCDYDGGSVHISKHPTQHNLFAMSLFGDRIFYSTWKMKTIWIANKHTGKDMVRINLHSSFVPLGELKVVHPLAQPKAEDDTWEPEQKLCKLRKGNCSSTVCGQDLQSHLCMCAEGYALSRDRKYCEDVNECAFWNHGCTLGCKNTPGSYYCTCPVGFVLLPDGKRCHQLVSCPRNVSECSHDCVLTSEGPLCFCPEGSVLERDGKTCSGCSSPDNGGCSQLCVPLSPVSWECDCFPGYDLQLDEKSCAASGPQPFLLFANSQDIRHMHFDGTDYGTLLSQQMGMVYALDHDPVENKIYFAHTALKWIERANMDGSQRERLIEEGVDVPEGLAVDWIGRRFYWTDRGKSLIGRSDLNGKRSKIITKENISQPRGIAVHPMAKRLFWTDTGINPRIESSSLQGLGRLVIASSDLIWPSGITIDFLTDKLYWCDAKQSVIEMANLDGSKRRRLTQNDVGHPFAVAVFEDYVWFSDWAMPSVMRVNKRTGKDRVRLQGSMLKPSSLVVVHPLAKPGADPCLYQNGGCEHICKKRLGTAWCSCREGFMKASDGKTCLALDGHQLLAGGEVDLKNQVTPLDILSKTRVSEDNITESQHMLVAEIMVSDQDDCAPVGCSMYARCISEGEDATCQCLKGFAGDGKLCSDIDECEMGVPVCPPASSKCINTEGGYVCRCSEGYQGDGIHCLDIDECQLGEHSCGENASCTNTEGGYTCMCAGRLSEPGLICPDSTPPPHLREDDHHYSVRNSDSECPLSHDGYCLHDGVCMYIEALDKYACNCVVGYIGERCQYRDLKWWELRHAGHGQQQKVIVVAVCVVVLVMLLLLSLWGAHYYRTQKLLSKNPKNPYEESSRDVRSRRPADTEDGMSSCPQPWFVVIKEHQDLKNGGQPVAGEDGQAADGSMQPTSWRQEPQLCGMGTEQGCWIPVSSDKGSCPQVMERSFHMPSYGTQTLEGGVEKPHSLLSANPLWQQRALDPPHQMELTQ
modifications: Pro-epidermal growth factor
Regarding B2, the Ki in test [1] is 3.2 nM.
